Residue numbers refer to the chain shown, from its start.
T1: CRISP2 (cysteine-rich secretory protein 2), C-terminal polyhistidine tag (human, UniProt P16562 22-243, RED-tris-NTA fluorescent label on the His tag)
T1 construct: also called Tpx-1; testis-specific protein 1; source: E. coli BL21, purified (nickel-NTA); not shown: polyhistidine, C-terminal, kept
T1 sequence (looked up): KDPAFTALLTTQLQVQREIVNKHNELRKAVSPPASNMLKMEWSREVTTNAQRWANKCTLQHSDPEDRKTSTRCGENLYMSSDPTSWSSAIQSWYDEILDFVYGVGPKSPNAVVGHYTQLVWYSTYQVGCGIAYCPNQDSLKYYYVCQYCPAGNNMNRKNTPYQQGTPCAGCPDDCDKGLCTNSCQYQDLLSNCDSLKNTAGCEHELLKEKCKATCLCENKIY

T2: CRISP2 L98G, His-tagged (human, UniProt P16562 22-243, L98G, RED-tris-NTA fluorescent label on the His tag)
T2 construct: CRISP2 with the point mutation L98G in the β2-strand; Same construct as m4 with the mutation; source: E. coli, purified; not shown: polyhistidine, C-terminal, kept
T2 sequence (looked up): T1 sequence (looked up) with L77G

T3: CRISP2 N97P, His-tagged (human, UniProt P16562 22-243, N97P, RED-tris-NTA fluorescent label on the His tag)
T3 construct: CRISP2 with the point mutation N97P in the β2-strand; Same construct as m4 with the mutation; source: E. coli, purified; not shown: polyhistidine, C-terminal, kept
T3 sequence (looked up): T1 sequence (looked up) with N76P

T4: CRISP2 Y99P, His-tagged (human, UniProt P16562 22-243, Y99P, RED-tris-NTA fluorescent label on the His tag)
T4 construct: CRISP2 with the point mutation Y99P in the β2-strand; Same construct as m4 with the mutation; source: E. coli, purified; not shown: polyhistidine, C-terminal, kept
T4 sequence (looked up): T1 sequence (looked up) with Y78P

T5: CRISP3 (cysteine-rich secretory protein 3), C-terminal polyhistidine tag (human, UniProt P54108 21-245, RED-tris-NTA fluorescent label on the His tag)
T5 construct: CRISP3, human; pET22b; source: E. coli, inclusion bodies, purified under denaturing conditions, renatured (nickel-NTA); not shown: polyhistidine, C-terminal, kept
T5 sequence (looked up): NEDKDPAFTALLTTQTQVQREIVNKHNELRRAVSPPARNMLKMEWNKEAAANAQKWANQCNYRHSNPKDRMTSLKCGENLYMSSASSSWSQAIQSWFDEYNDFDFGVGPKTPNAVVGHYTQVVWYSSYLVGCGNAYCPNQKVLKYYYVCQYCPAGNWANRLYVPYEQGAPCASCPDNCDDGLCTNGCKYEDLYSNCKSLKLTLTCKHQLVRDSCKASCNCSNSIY

T6: Pry1 (pathogen related in yeast 1), C-terminal polyhistidine tag (S. cerevisiae, UniProt P47032 20-299, RED-tris-NTA fluorescent label on the His tag)
T6 construct: Pry1, S. cerevisiae CAP family member; source: E. coli BL21, purified (nickel-NTA); not shown: polyhistidine, C-terminal, kept
T6 sequence (looked up): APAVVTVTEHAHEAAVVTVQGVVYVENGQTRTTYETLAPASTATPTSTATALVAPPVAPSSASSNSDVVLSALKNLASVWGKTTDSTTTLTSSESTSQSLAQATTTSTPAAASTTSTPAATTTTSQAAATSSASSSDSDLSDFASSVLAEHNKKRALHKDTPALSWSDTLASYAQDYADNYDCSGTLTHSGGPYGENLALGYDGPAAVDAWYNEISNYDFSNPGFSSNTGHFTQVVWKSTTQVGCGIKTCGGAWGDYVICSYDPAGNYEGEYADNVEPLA

T7: CRISP2 L98G, His-tagged (human, UniProt P16562 22-243, L98G, RED-tris-NTA fluorescent label on the His tag)
T7 sequence: T1 sequence (looked up) with L77G

T8: CRISP2 N97P, His-tagged (human, UniProt P16562 22-243, N97P, RED-tris-NTA fluorescent label on the His tag)
T8 sequence: T1 sequence (looked up) with N76P

T9: CRISP2 Y99P, His-tagged (human, UniProt P16562 22-243, Y99P, RED-tris-NTA fluorescent label on the His tag)
T9 sequence: T1 sequence (looked up) with Y78P

T10: CRISP2^N97P L98G (Homo sapiens, UniProt P16562, L98G/N97P)
T10 construct: made in house; host or cells: E. coli
T10 sequence (P16562 22-243 N97P/L98G): T1 sequence (looked up) with N76P, L77G

B1: prostate secretory protein of 94 amino acids (PSP94), C-terminal polyhistidine tag (natural protein, human, UniProt P08118 21-114, looked up)
chain: SCYFIPNEGVPGDSTRKCMDLKGNKHPINSEWQTDNCETCTCYETEISCCTLVSTPVGYDKDNCQRIFKKEDCKYIVVEKKDPKKTCSVSEWII
notes: PSP94 (β-microseminoprotein), human; also called β-microseminoprotein; MSP; source: E. coli BL21, purified (nickel-NTA)
B2: PSP94: prostate secretory protein of 94 amino acids, His-tagged, purified from E. coli; or expressed in yeast (protein)
chain: B1 chain
modifications: left off: polyhistidine, C-terminal, state not stated
notes: prostate secretory protein of 94 amino acids, His-tagged, purified from E. coli; or expressed in yeast

What was measured:
[1] = molecular target: T1, CRISP2 (cysteine-rich secretory protein …); experiment: MST; 100 nM CAP protein labelled with RED-tris-NTA on its His tag, serial dilution of unlabeled PSP94 or PSP94^F24G; 20 mM Tris pH 7.5, 30 mM NaCl, 0.05% Triton X-100; Monolith NT.115, 80% laser power; triplicates; details: both partners purified
[2] = molecular target: T2, CRISP2 L98G, His-tagged; experiment: as above; details: both partners purified
[3] = molecular target: T3, CRISP2 N97P, His-tagged; experiment: as above; details: both partners purified
[4] = molecular target: T4, CRISP2 Y99P, His-tagged; experiment: as above; details: both partners purified
[5] = molecular target: T5, CRISP3 (cysteine-rich secretory protein …); experiment: as above; details: both partners purified
[6] = molecular target: T6, Pry1 (pathogen related in yeast 1), …; experiment: as above; details: both partners purified
[7] = molecular target: T7, CRISP2 L98G, His-tagged; experiment: MST
[8] = molecular target: T8, CRISP2 N97P, His-tagged; experiment: MST
[9] = molecular target: T9, CRISP2 Y99P, His-tagged; experiment: MST
[10] = molecular target: T10, CRISP2^N97P L98G; experiment: MST binding to CRISP2 double mutant N97P L98G; parameters: species or system mammalian; details: read-out: Kd, protein-protein interaction with CRISP2^N97P L98G
Procedure: Next, we generated all three double mutant combinations of CRISP2: N97P L98G, N97P Y99P, and L98G Y99P. These three double mutant versions of CRISP2 were again expressed as His-tagged proteins in E. coli and purified, and their capacity to bind sterols in the presence or absence of PSP94 was assessed by MST. […] The capacity of the CRISP2^L98G Y99P double mutant to bind sterols even in the presence of PSP94 was confirmed by the in vivo sterol export assay (Fig. 6, A and B). When expressed in yeast cells, the CRISP2^L98G Y99P double mutant was stably expressed and secreted as monitored by Western blotting (Fig. 6C).
MST experiments were performed to assess protein–protein, protein–lipid, and protein–calcium interactions using a Monolith NT.115 (Nanotemper Technologies). Proteins were labeled using the RED-tris-NTA His tag protein labeling kit. Labeled CAP proteins, 100 nM, were mixed with a serial dilution of unlabeled PSP94, PSP9^F24G, cholesterol sulfate, or calcium chloride, prepared in binding buffer (20 mM Tris pH 7.5, 30 mM NaCl, 0.05% Triton X-100). Samples were loaded into MST standard capillaries, and MST measurements were performed using an 80% laser power setting. The dissociation constant Kd was obtained by plotting the normalized fluorescence (Fnorm) against the logarithm of ligand concentration. […]

[11] = tested on: fatty acid export by CAP family members (CRISP2); experiment: Fatty acid export assay in yeast; type: cell-based, Saccharomyces cerevisiae; details: co-expression with CRISP2 in faa1Δ faa4Δ pry1Δ pry3Δ yeast
Excerpt: We and others have previously shown that CAP proteins can bind eicosanoids and free fatty acids at a second lipid-binding site that is independent of the sterol-binding site ([30], [31]). To test whether PSP94 affects fatty acid binding by the CAP domain, we examined whether coexpression of PSP94 with CRISP2 affects fatty acid export from mutant cells lacking the two acyl-CoA synthases Faa1 and Faa4 and two of the three yeast CAP domain proteins, Pry1 and Pry3.
To analyze the CRISP2-dependent export of fatty acids, cells were grown overnight and the supernatant of 5 A600nm units of yeast cells was collected and dried in a freeze dryer. Fatty acid methyl esters (FAMEs) were produced by incubating the dried fractions at 85 °C for 45 min in 1 ml of methanol–sulfuric acid (5% v/v) supplemented with butylated hydroxytoluene (0.01% w/v). The FAMEs were extracted in a mixture containing 1.5 ml of NaCl (0.9% w/v) and 2 ml of hexane, and the upper phase was collected. FAMEs were then resuspended in heptane and separated on an Agilent 7890A gas chromatograph equipped with a DB-23 capillary column (30 m × 0.25 mm × 0.25 μm) (Agilent Technologies) and quantified relative to an internal standard (C17:0, 10 μg) as described ([31]).

Molecule | Kd [1] [nM] | binding result [2] | binding result [3] | binding result [4] | binding result [5] | Kd [6] [nM] | Kd [7] [nM] | Kd [8] [nM] | Kd [9] [nM] | Kd [10] [nM] | effect on fatty acid export [11]
B1 | 6 | binds | binds | binds | binds | 70 | 8.6 | 8.1 | 9.3 | – | –
B2 | – | – | – | – | – | – | – | – | – | 4 ± 1.8 | does not affect fatty acid binding and export

From article PMC8857485, “Prostate secretory protein 94 inhibits sterol binding and export by the mammalian CAP protein CRISP2 in a calcium-sensitive manner” (The Journal of Biological Chemistry, 2022)
